Experimental data as given in US20190270817A1 (Amgen, published 2019).
Positions count from the first letter of the chain named. In names and notes the source's numbering stands.

B1: A-2-006 (22D4.006) x IL-21 (R5A, R76E) homodimer fusion (other, not shown: a dimerising Fc or GST)
heavy: EVQLVESGGSVVRPGGSLRLSCAASGFTVDDYSMSWVRQVPGKGLEWVSGINWNGGRTRYADAVKGRFTISRDSAKNSLYLQMNSLRAEDTALYYCAREFNNFESNWFDPWGQGTLVTVSSQGQDAHMIRMRQLIDIVDQLKNYVNDLVPEFLPAPEDVETNCEWSAFSCFQKAQLKSANTGNNERIINVSIKKLKEKPPSTNAGRRQKHRLTCPSCDSYEKKPPKEFLERFKSLLQKMIHQHLSSRTHGSEDS
light: SYELTQPPSVSVSPGQTARITCSGDALPKKYAYWYQQKPGQAPVLVISEDAKRPSGIPERFSGSSSGTMATLTISGAQVEDEADYYCYSTDASGNHRVFGGGTKLTVLGQPKAAPSVTLFPPSSEELQANKATLVCLISDFYPGAVTVAWKADSSPVKAGVETTTPSKQSNNKYAASSYLSLTPEQWKSHRSYSCQVTHEGSTVEKTVAPTECS
B2: A-2-006 (22D4.006) x IL-21 (R9E, R76A) homodimer fusion (other, not shown: a dimerising Fc or GST)
heavy: B1 heavy with A126R, R130E, E197A
light: B1 light
B3: A-2-006 (22D4.006) x IL-21 (R5E, R76A) homodimer fusion (other, not shown: a dimerising Fc or GST)
heavy: B1 heavy with A126E, E197A
light: B1 light
B4: A-2-006 (22D4.006) x IL-21 (R5Q, R76E) homodimer fusion (other, not shown: a dimerising Fc or GST)
heavy: B1 heavy with A126Q
light: B1 light
B5: A-3-009 (20C1.009) x IL-21 (R5Q, R76E) homodimer fusion (other, not shown: a dimerising Fc or GST)
heavy: EVQLLESGGGLVQPGGSLRLSCAASGFTFSSYDMSWVRQAPGKGLEWVSLISGGGSQTYYAESVKGRFTISRDNSKNTLYLQMNSLRAEDTAVYFCASPSGHYFYAMDVWGQGTTVTVSSQGQDQHMIRMRQLIDIVDQLKNYVNDLVPEFLPAPEDVETNCEWSAFSCFQKAQLKSANTGNNERIINVSIKKLKEKPPSTNAGRRQKHRLTCPSCDSYEKKPPKEFLERFKSLLQKMIHQHLSSRTHGSEDS
light: DIQMTQSPSSVSASVGDRVTITCRASQGISNWLAWYQQKPGKAPKLLIFAASSLQSGVPSRFSGSGSGTDFTLTISSLQPEDFATYYCQQAESFPHTFGGGTKVEIKRTVAAPSVFIFPPSDEQLKSGTASVVCLLNNFYPREAKVQWKVDNALQSGNSQESVTEQDSKDSTYSLSSTLTLSKADYEKHKVYACEVTHQGLSSPVTKSFNRGEC
B6: A-3-009 (20C1.009) x IL-21 (R9E, R76A) homodimer fusion (other, not shown: a dimerising Fc or GST)
heavy: B5 heavy with Q125R, R129E, E196A
light: B5 light
B7: A-3-009 (20C1.009) x IL-21 (R5E, R76A) homodimer fusion (other, not shown: a dimerising Fc or GST)
heavy: B5 heavy with Q125E, E196A
light: B5 light
B8: A-4-006 (20C1.006) x IL-21 (R5A, R76E) homodimer fusion (other, not shown: a dimerising Fc or GST)
heavy: B5 heavy with Q57N, Q125A
light: B5 light
B9: A-1-003 (20A2.003) x IL-21 (R5A, R76E) homodimer fusion (other, not shown: a dimerising Fc or GST)
heavy: not shown
light: SYELTQPPSVSVSPGQTASITCSGDKLGDKYASWYQQKPGQSPVLVIYQDRKRPSGIPERFSGSNSGNTATLTISGTQAMDEADYYCQAFESSTEVFGGGTKLTVLGQPKAAPSVTLFPPSSEELQANKATLVCLISDFYPGAVTVAWKADSSPVKAGVETTTPSKQSNNKYAASSYLSLTPEQWKSHRSYSCQVTHEGSTVEKTVAPTECS
B10: A-1-003 (20A2.003) x IL-21 (R5Q, R76E) homodimer fusion (other, not shown: a dimerising Fc or GST)
heavy: not shown
light: B9 light
B11: A-1-003 (20A2.003) x IL-21 (R9E, R76A) homodimer fusion (other, not shown: a dimerising Fc or GST)
heavy: not shown
light: B9 light
B12: A-1-003 (20A2.003) x IL-21 (R5E, R76A) homodimer fusion (other, not shown: a dimerising Fc or GST)
heavy: not shown
light: B9 light

These binders were tested against T1, cynomolgus monkey IL-21R, recombinant soluble (FLAG-His or Fc, not stated which) (cynomolgus monkey, UniProt G7Q0S8 41-253) (assay: ForteBio Octet).
T1 construct: also called IL-21R Cy

Kd, > 300 nM:
B1
B2
B3
B4
B5
B6
B7
B8
B9
B10
B11
B12
